Measurements as given in paper PMC1780049, “Functional analysis of Arabidopsis WRKY25 transcription factor in plant defense against Pseudomonas syringae”.

T1: WRKY25 (Arabidopsis, UniProt O22921 1-393)
T1 sequence: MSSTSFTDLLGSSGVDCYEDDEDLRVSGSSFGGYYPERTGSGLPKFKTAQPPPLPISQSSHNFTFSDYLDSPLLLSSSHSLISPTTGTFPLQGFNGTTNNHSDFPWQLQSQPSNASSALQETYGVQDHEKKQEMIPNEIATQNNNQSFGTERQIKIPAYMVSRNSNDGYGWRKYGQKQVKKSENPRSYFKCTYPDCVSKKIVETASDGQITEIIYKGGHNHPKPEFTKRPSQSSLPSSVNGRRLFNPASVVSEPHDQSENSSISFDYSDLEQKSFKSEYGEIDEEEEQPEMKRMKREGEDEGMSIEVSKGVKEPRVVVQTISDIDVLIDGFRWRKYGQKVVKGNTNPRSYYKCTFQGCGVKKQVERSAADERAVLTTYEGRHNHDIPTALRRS


Target: T1, WRKY25
Assay: EMSA; poly(dIdC) 5 ug; 12 ul nuclear extraction buffer (25 mM HEPES/KOH pH 7.5, 40 mM KCl, 0.1 mM EDTA, 10% glycerol, 1 mM DTT, PMSF), 5 ug poly(dIdC), 1 ug protein, 2 ng labelled dsDNA; room temperature 30 min; 10% PAGE in 0.5x TBE at 4 C
Settings: protein: recombinant, tags: His-tagged, pET32a (EcoRI/XhoI) vector fusion, (Klenow labelled, ~10^5 cpm/ng)

Row | Binder | binding result
1 | Pchn5 (dsDNA) DNA 1: GGAACTTGACCATCCGTTGACCGGGCTGCAGGAATTCG DNA 2: CGAATTCCTGCAGCCCGGTCAACGGATGGTCAAGTTCC | binds
2 | mPchn5 (dsDNA) DNA 1: GGAACTTGAACATCCGTTGAACGGGCTGCAGGAATTCG DNA 2: CGAATTCCTGCAGCCCGTTCAACGGATGTTCAAGTTCC | no binding
